Assay results reported in the DeepSol protein solubility set.

assay: soluble on expression in E. coli; label from the status in PepcDB or PDB records

Row | Sequence | soluble on expression in E. coli
1 | MGSDKIHHHHHHMEIQNLKFEDRDEFKRKSIAAKVISVLQADIDISPMVIDGSWGTGKTEFCHKLINLMHVSDTHHLIYVDAFKADHADEPLMTVLAEVIKVLPDDDSKQSFMKKALPAVRYGLKTIAKAGVSHLLRQDIADVADDFDKQIQGAADKAIDATVESVLKDHVKADKNLKALQVALADIAAIKPIVLFIDELDRCRPNFAVDMLEIIKHTFDVDGVKFVLITNTQQLKASINHCYGLSVDAQRYLDKFVKFTIALPETVDTNAHRESIAAIEHYKNLVRSSHVLVDMKLYECGSIRTIEQIIIANRLSLREVETVVRHIEIYVTLAQSNNLQSNTIFGYKVLTILAIAIYSIQPEVALSILQKKLDAKDIGNCLGISSLSNNIQGRPDEQELICYMLGYTALHNKEHFTPTEDVDVWKQESAQYFRGAHWRTDDFASICAEAIQTLTMC | not soluble
2 | MGSDKIHHHHHHMEKEIAIITLHGMGDYKPNYFEALKNQLEKKLGTKWDKIAFEPVQYQPILQQNQIKIWQRMNSYPLDGSILRRFLLFGFSDAGSLEYSARSKVSVQYIEVQKEIMQALDKLYVELGNNDKPVIIIAQSLGCQVISNYIWDAKHDSGIFNGLEPDASAQLKSFRRLNSCVHLLTTGCNIPMFVAGLNPIEAIQKPNNEFTWFNYYDRDDVLGWPLSPLSDSYGALVKDHEINAGGIFSSWNPWSHGQYWTDKDVLNSLIDRIRRYI | not soluble
3 | MGSDKIHHHHHHMEKNYYLTKTEQRIFNVIKHAKIITVREVAELFPELSRNMICKALSSLEKKGYLYRIKNGLYLIQQAPTKGSIIIEDPYRIALAMFSGYIAFSSALRLYNLIEYEPFTVFVATPRKSKKVEIDNYIIQAVALGEKATGITLYNGVYTSTLAKTFFDCFYKPQYCGGYETITKALYEAESIDWKEFLDYFKRFASPSLFQRTGYILELMNKELNFKIPKEVLEFFRSKVETKTKLVPTSPSRGKFIKEWKLLDNLGKDKILGWAYGY | not soluble
4 | MGSDKIHHHHHHMELTGHMKNNRYSIFRNAICIAATAGMLFGCGPDKKPVEKVAEEVVLQPMVTPDFNSDSSYEYVSRQVAFGPRVPNTKPHMDCGEYLAKFFTKHGGWVYRQQFSAKAFDGTDLRLKNIIVSYNQKATKRILLAAHWDTRPFADQDEVDPKKPIDGANDGASGVGILMELARVINLAEKKPDVGFDIILFDGEDYGQPMYYPGPYQNDSWCLGSQYWAKHKFPANYSAYYGILLDMVGAKDATFAKEGVSVENAPSVVNNVWTTAARLGYGKHFINVMSQPITDDHTYINKLALIPMIDIIEYENSDDVYFGSYWHTHNDNMNIIDKNTLKAVGQTLIEVLYREKL | not soluble
5 | MGSDKIHHHHHHMELYAASYILPIASPPIPGGAVAVHDGCIVETGTLAELRSRHSGPVHDFPGCAILPGLVNAHTHLELTHFPSWKIRKGIDYSPRTYVDWIIQVIKIRRALSPQELELSVREGLRICLEAGTTAIGEILTDRSLIPLYADSGLRGRLLFEAIGHDPVRNAQLVEELDAAIASFSGGSFLPGISPHAPHTVAEHLHQDVYRLAYERNVPRVIHLAESREESDFFFDSSGKIAEFLYPHVRWESYLPAPRRTTATAWLDGLGVLNGTISAVHCVHLTPSDAEILAKRGVGVVLCPRSNDKLAVGRAPVVLLKRLGVPLALGTDSLASNDSLSLWDEMRYLLDTFPGIFTPTEALSMTTIGSARQLALADRTGSLDKGKHADFLVMKLPGRNGSGEALHEALIHSGEILQVFLAGNLVVSREAFS | not soluble
6 | MGSDKIHHHHHHMEMLFLLKNLYRDPLALSRFSQFRCLHISKGEIIQNLNETHEFQVCFVLKGSLCLFRDHIESMPLMAMQNEFFFISSLHQCKIKAMDEVQLVIHACNIVAPYLHSRTIEYLQDISIEEVKPVEVLPIYPLMRSYLDLLVDYMKNGTEIPDLHRAKEYELFSLFKICYKKNEIASIFRDALSNDLQFFVSVMTHYKACRTAKELAVLCGYNDTVFTQLFKKNFHGDTPYQWLQKQTSYEIEFKLKKSTLPIKQIMLDYHFKTFSHFTTYCKRNIGATPNEIRKKGEESRDTPSLETYSVSAND | not soluble
7 | MGSDKIHHHHHHMENKEVIIIGAGAAGVGMGVALKDFGINNFAILERKQVGNSFIKWPEQTRFITPSFTSNGFGMPDLNAIAIDTSPSYTLGEERLSGKDYAKYLQLVSEEYKLPIKTNCKVQSIKKEKTGYLLETTKGFIYAEYVIFAMGEFSFPNKSSIKGAYKNSLHYGEINSWIEIKGDKQTIIGGNESAIDAAIELAKLGKRVTIYTDTLGLNIRDADPSKRLAPRTRQRFFDLRVNQKKLDSIKIYTTTKVKKIEKKSTSYILITENGKSLPVENIPILCTGFKNGTKSITASLFKYKENGEVLLNDFDESTIAKNIFLTGPNVRKGNTIFCYIYKFRQRFAVIANEIARRKHITIDEKKLSYYKNQSFYLDGCSGCEVRCSC | not soluble
8 | MGSDKIHHHHHHMENQTGIFNSYKIDPAHFDEAWLPTGDVRMHYKHLMETFKGLDIEEYLKINELAKGNLFNQGVTFNVYSENAEGVERLFPFDLFPRMIPSEEWKTIEVGIKQRNKAINLFLWDIYHEQKILKDKIVPSELLFSSQFYKKEMIGVDPPAGIYIHITGTDIIKHNDGKYYVLEDNLRCPSGVSYVLSNRETMKKIFFNLFSRYHVKPIMQYTEKLLSTIRSVAPDRIDNPLCVILTPGTYNSAYFEHSFLAHQMGIQLVEGRDLFVEKNFVYMKTIKGPKRVDVIYRRVDDDFIDPLVFNPKSVLGVPGLMSAYQAGNVTIINAPGTGVADDKAVYTYVPDIIKYYLGEEPILNNVPTYRCERPDEMKYVLENMHNLVVKPVDESGGYGVFIGNRKTKEEIEEYKKLILDTPRKYIAQPIMSLSVLSTFIEDSNESEQRHIDLRSFALMGKEETYVLDGGLTRVALSKGNLIVNSSQGGGSKDTWVIENY | not soluble
9 | MGSDKIHHHHHHMENRKHTSLKDLAQALGVSIPTVSRALKDSPEISRELCAKAKKLAKEMNYRPNPFAMSLRKNAPRIIGVIVPDIVTHFFASILNGIENMAIDNGYFVIITTSHESFEHEKRNIENLVNMRVEGIIACLSQETTDFSHFAALKEINMPLILFDRVCLTDQFSSVIADGAQSAQMATQHLLDNGSKRVAFIGGANHLDIVKRRKHGYLEALRDNRIPIEKELVVCRKIDYEEGQIATETLLSLPQPPDAILAMNDTLAFAAMEVIKRHGLRIPDDIAIIGYTDEQHANYVEPKLSAVSHQTYKMGETACQLLIDQIKGDRTVKQVVIPTHLQIRESSIKENNKKNAVST | not soluble
10 | MGSDKIHHHHHHMENSKVSLKIDVLVAEIGSTTTVVNAFHDINTNNPIFLGQGQAPTTVFEGGDVRNGLSGAIKDLANKLSVDDIEYNDMFATSSAAGGLKMTVHGLVYDMTVKAAKEAALGAGAVIRQITSGRIKRTDLNKIKEINPNIILIAGGVDYGERDTAIYNAEMIASMNLGIPVIYAGNVENQEEIRLIFEDTNYKLYITENVYPKIDLLNIEPTRRIIQSVFEEHITTAPGMKYIKEMVNENITPTPGAVMEASKLLYKNIGDLLTLDVGGATTDVHSVTDGSDYINKILVNPEPTAKRSVEGDLGVYVNMKNIVEVIGKENLQSELSIDIDAVIENYPPIPKSKEEILFVERLTKEAVVKAMLRHSGKIRNIYGTTGKVKIAEGKDLTEVRYIVGTGGALTRLPSRIEILDNMLKYNKNNELLFPKEKTKILIDNDYIMASMGVLSKKYEEASLKLLLKSLNFEEERLCILG | not soluble
11 | MGSDKIHHHHHHMEPAGVYAKNVQIDRELSQRLHGALTCGKEELFQVVADPAPDVIRAALRNPAMDENHLLVLLGRRDLGEDLVAAIGRHDAVAESHKLKAALVRNPATPAQLVMSLLPHLYLFELVDLCLLAGVTPDQRVAAERAVIQRLSTTPLGNKITLARRATASILDALLKESDVRVVESCLTNPRLKEGSVFQLVSSSRATGDVIAAVARHQCWSNRPNLKAAMLKNPNTPTSLFSTLLASAPTMEVRNLAASGRLGTERKRLAAQELKRRGC | not soluble
12 | MGSDKIHHHHHHMERKTDSIDLAPLFHPDTIRLSRLAERLDDGPYHGGRIDPLALVITQREEATGQAGIDRYPMLQLAVGRAGMQVGQVDLGQLHPPVRSYLECRFHILKIVNLRHISIISRRNNSPEITLSHPKRQSPHALPYLCINIKKQHIMIRYKKYQNKNEKNVTTFNKWYARAVCEETVDIAALAEHMSTHNTPFSTGAIHGMLKDMVNCIKELLMDGKNVKIDDLGIFSVGIRSKGAVTPEDFSTQGNIIGVRLRARATGNLSSASLKLTAKLREYTEYSNGEVTPGGGGGDSESPDEI | not soluble
